Patent publication US20200216534A1
Where two headings read alike, the source gives them in different places. One block for each molecule: values may come before it.

Experiments:
Assay in all cases: cell-based or functional assay
[1] = target: m19-humBBz CAR (mouse; human) (UniProt P01731)
h19BBz CAR (human) = h19BBz CAR (human) (UniProt P01732)
[2] = target: m19-humBBz CAR (mouse; human) (UniProt P01731); remark: listed apart in the source

NF-κB signaling, GFP % in NF-κB/293/GFP-Luc reporter cells [1]: 13.4% | NF-κB signaling, GFP MFI in NF-κB/293/GFP-Luc reporter cells [1]: 1690 MFI
Molecule: TRAF1 DN (184-417aa)

NF-κB, fold against h19BBz alone (h19BBz CAR (human)): 7.7 fold
Molecule: TRAF2 (over-expressed, cerulean-tagged)

NF-κB signaling, GFP MFI in NF-κB/293/GFP-Luc reporter cells [2]: 14300 MFI | NF-κB signaling, GFP+% in NF-κB/293/GFP-Luc reporter cells [2]: 63.5%
B1: TRAF2 DN (87-501aa) (protein, UniProt Q12933 87-501, looked up, species assumed)
chain: SSSAFPDNAARREVESLPAVCPSDGCTWKGTLKEYESCHEGRCPLMLTECPACKGLVRLGEKERHLEHECPERSLSCRHCRAPCCGADVKAHHEVCPKFPLTCDGCGKKKIPREKFQDHVKTCGKCRVPCRFHAIGCLETVEGEKQQEHEVQWLREHLAMLLSSVLEAKPLLGDQSHAGSELLQRCESLEKKTATFENIVCVLNREVERVAMTAEACSRQHRLDQDKIEALSSKVQQLERSIGLKDLAMADLEQKVLEMEASTYDGVFIWKISDFARKRQEAVAGRIPAIFSPAFYTSRYGYKMCLRIYLNGDGTGRGTHLSLFFVVMKGPNDALLRWPFNQKVTLMLLDQNNREHVIDAFRPDVTSSSFQRPVNDMNIASGCPLFCPVSKMEAKNSYVRDDAIFIKAIVDLTGL
modifications: cerulean fluorescent protein tag

NF-κB signaling, GFP % in NF-κB/293/GFP-Luc reporter cells [2]: 30.8% | NF-κB signaling, GFP MFI in NF-κB/293/GFP-Luc reporter cells [2]: 6060 MFI
B2: TRAF3 DN (382-568aa) (protein, UniProt Q13114 382-568, looked up, species assumed)
chain: ESQLSRHDQMLSVHDIRLADMDLRFQVLETASYNGVLIWKIRDYKRRKQEAVMGKTLSLYSQPFYTGYFGYKMCARVYLNGDGMGKGTHLSLFFVIMRGEYDALLPWPFKQKVTLMLMDQGSSRRHLGDAFKPDPNSSSFKKPTGEMNIASGCPVFVAQTVLENGTYIKDDTIFIKVIVDTSDLPDP
modifications: cerulean fluorescent protein tag
